Experimental data taken from US12679878B2, “CRF2 receptor agonists and their use in therapy” (SANOFI, priority 2020, dated 2026).
Starred links: 1 amine or outer side, 2 acyl side, 3 side chain; linkers in the order of their positions; H or OH if unused. Non-standard residues stand in square brackets, D forms with d. Groups on a side chain read outwards from the residue. No end group written: not given here. *: point of attachment. C16 diacid = O=C(O)CCCCCCCCCCCCCCC(=O)*; γGlu = O=C(O)[C@H](CCC(=O)[*:2])N[*:1]; Palmitoyl = CCCCCCCCCCCCCCCC(=O)*; Aib = CC(C)(N)C(=O)O

T1: CRF1R receptor (anti-target) (UniProt P34998 24-415, limits assumed)
T1 sequence (looked up): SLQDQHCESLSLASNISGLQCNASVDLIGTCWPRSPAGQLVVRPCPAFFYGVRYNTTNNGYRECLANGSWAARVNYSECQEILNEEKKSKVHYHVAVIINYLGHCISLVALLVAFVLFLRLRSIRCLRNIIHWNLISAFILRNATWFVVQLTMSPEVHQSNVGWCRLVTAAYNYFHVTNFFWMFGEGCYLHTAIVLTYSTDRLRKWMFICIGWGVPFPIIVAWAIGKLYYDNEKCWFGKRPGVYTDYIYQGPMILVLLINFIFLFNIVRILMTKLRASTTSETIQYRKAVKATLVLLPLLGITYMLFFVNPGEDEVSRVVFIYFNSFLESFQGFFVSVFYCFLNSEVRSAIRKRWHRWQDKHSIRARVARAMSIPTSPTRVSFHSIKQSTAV


Key:
Experiment in all cases: cell-based or functional assay
[1] = target: T1, CRF1R receptor (anti-target)
[2] = target: human corticotropin-releasing factor 2α (CRF2α receptor) (human), Q13324
Sequence of human corticotropin-releasing factor 2α (CRF2α receptor) (human), Q13324 (Q13324 20-411): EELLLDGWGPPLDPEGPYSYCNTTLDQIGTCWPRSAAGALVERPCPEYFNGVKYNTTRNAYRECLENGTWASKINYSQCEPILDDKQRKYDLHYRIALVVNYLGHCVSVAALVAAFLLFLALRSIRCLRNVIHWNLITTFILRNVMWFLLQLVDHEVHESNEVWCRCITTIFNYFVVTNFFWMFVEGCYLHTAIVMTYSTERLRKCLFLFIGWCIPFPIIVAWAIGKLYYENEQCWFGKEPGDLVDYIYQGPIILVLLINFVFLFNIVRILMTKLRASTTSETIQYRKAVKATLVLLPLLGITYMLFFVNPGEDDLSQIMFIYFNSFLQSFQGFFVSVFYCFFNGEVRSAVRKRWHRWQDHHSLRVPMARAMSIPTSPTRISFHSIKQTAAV

[3] = target: human corticotropin-releasing factor 2α receptor (CRF2α receptor) (human), Q13324
Sequence of human corticotropin-releasing factor 2α receptor (CRF2α receptor) (human), Q13324 (Q13324 20-411): as above

| Binder | CRF1/CRF2 ratio (of EC50) [1] | CRF1 EC50 (cAMP, HTRF) [1] [nM] | EC50 [nM], 0% HSA (cAMP, HTRF) [2] [nM] | CRF2 EC50 (cAMP, HTRF) [3] [nM] |
| --- | --- | --- | --- | --- |
| IVLSLD[dV]PIKLK([γGlu-Palmitoyl])QILLKQERQK[Aib]QREQAEKNKQILAQV-NH2 (N-terminus assumed; SMILES CCCCCCCCCCCCCCCC(=O)N[C@@H](CCC(=O)NCCCC[C@H](NC(=O)[C@H](CC(C)C)NC(=O)[C@H](CCCCN)NC(=O)[C@@H](NC(=O)[C@@H]1CCCN1C(=O)[C@H](NC(=O)[C@H](CC(=O)O)NC(=O)[C@H](CC(C)C)NC(=O)[C@H](CO)NC(=O)[C@H](CC(C)C)NC(=O)[C@@H](NC(=O)[C@@H](N)[C@@H](C)CC)C(C)C)C(C)C)[C@@H](C)CC)C(=O)N[C@@H](CCC(N)=O)C(=O)N[C@H](C(=O)N[C@@H](CC(C)C)C(=O)N[C@@H](CC(C)C)C(=O)N[C@@H](CCCCN)C(=O)N[C@@H](CCC(N)=O)C(=O)N[C@@H](CCC(=O)O)C(=O)N[C@@H](CCCNC(=N)N)C(=O)N[C@@H](CCC(N)=O)C(=O)N[C@@H](CCCCN)C(=O)NC(C)(C)C(=O)N[C@@H](CCC(N)=O)C(=O)N[C@@H](CCCNC(=N)N)C(=O)N[C@@H](CCC(=O)O)C(=O)N[C@@H](CCC(N)=O)C(=O)N[C@@H](C)C(=O)N[C@@H](CCC(=O)O)C(=O)N[C@@H](CCCCN)C(=O)N[C@@H](CC(N)=O)C(=O)N[C@@H](CCCCN)C(=O)N[C@@H](CCC(N)=O)C(=O)N[C@H](C(=O)N[C@@H](CC(C)C)C(=O)N[C@@H](C)C(=O)N[C@@H](CCC(N)=O)C(=O)N[C@H](C(N)=O)C(C)C)[C@@H](C)CC)[C@@H](C)CC)C(=O)O) [peptide of SEQ ID NO: 204] | 3 | 0.44 | 0.14 | 0.14 |
| IVLSLD[dV]PIKLK([γGlu-C16 diacid])QILLKQERQK[Aib]QRQQAEKNKQILAQV-NH2 (N-terminus assumed; SMILES CC[C@H](C)[C@H](N)C(=O)N[C@H](C(=O)N[C@@H](CC(C)C)C(=O)N[C@@H](CO)C(=O)N[C@@H](CC(C)C)C(=O)N[C@@H](CC(=O)O)C(=O)N[C@@H](C(=O)N1CCC[C@H]1C(=O)N[C@H](C(=O)N[C@@H](CCCCN)C(=O)N[C@@H](CC(C)C)C(=O)N[C@@H](CCCCNC(=O)CC[C@H](NC(=O)CCCCCCCCCCCCCCC(=O)O)C(=O)O)C(=O)N[C@@H](CCC(N)=O)C(=O)N[C@H](C(=O)N[C@@H](CC(C)C)C(=O)N[C@@H](CC(C)C)C(=O)N[C@@H](CCCCN)C(=O)N[C@@H](CCC(N)=O)C(=O)N[C@@H](CCC(=O)O)C(=O)N[C@@H](CCCNC(=N)N)C(=O)N[C@@H](CCC(N)=O)C(=O)N[C@@H](CCCCN)C(=O)NC(C)(C)C(=O)N[C@@H](CCC(N)=O)C(=O)N[C@@H](CCCNC(=N)N)C(=O)N[C@@H](CCC(N)=O)C(=O)N[C@@H](CCC(N)=O)C(=O)N[C@@H](C)C(=O)N[C@@H](CCC(=O)O)C(=O)N[C@@H](CCCCN)C(=O)N[C@@H](CC(N)=O)C(=O)N[C@@H](CCCCN)C(=O)N[C@@H](CCC(N)=O)C(=O)N[C@H](C(=O)N[C@@H](CC(C)C)C(=O)N[C@@H](C)C(=O)N[C@@H](CCC(N)=O)C(=O)N[C@H](C(N)=O)C(C)C)[C@@H](C)CC)[C@@H](C)CC)[C@@H](C)CC)C(C)C)C(C)C) [peptide of SEQ ID NO: 188] | 134 | 69.1 | 0.46 | 0.46 |
| IVLSLD[dV]PIKLK([γGlu-C16 diacid])QILLKQERQKKQRQQAEKNKQILAQV-NH2 (N-terminus assumed; SMILES CC[C@H](C)[C@H](N)C(=O)N[C@H](C(=O)N[C@@H](CC(C)C)C(=O)N[C@@H](CO)C(=O)N[C@@H](CC(C)C)C(=O)N[C@@H](CC(=O)O)C(=O)N[C@@H](C(=O)N1CCC[C@H]1C(=O)N[C@H](C(=O)N[C@@H](CCCCN)C(=O)N[C@@H](CC(C)C)C(=O)N[C@@H](CCCCNC(=O)CC[C@H](NC(=O)CCCCCCCCCCCCCCC(=O)O)C(=O)O)C(=O)N[C@@H](CCC(N)=O)C(=O)N[C@H](C(=O)N[C@@H](CC(C)C)C(=O)N[C@@H](CC(C)C)C(=O)N[C@@H](CCCCN)C(=O)N[C@@H](CCC(N)=O)C(=O)N[C@@H](CCC(=O)O)C(=O)N[C@@H](CCCNC(=N)N)C(=O)N[C@@H](CCC(N)=O)C(=O)N[C@@H](CCCCN)C(=O)N[C@@H](CCCCN)C(=O)N[C@@H](CCC(N)=O)C(=O)N[C@@H](CCCNC(=N)N)C(=O)N[C@@H](CCC(N)=O)C(=O)N[C@@H](CCC(N)=O)C(=O)N[C@@H](C)C(=O)N[C@@H](CCC(=O)O)C(=O)N[C@@H](CCCCN)C(=O)N[C@@H](CC(N)=O)C(=O)N[C@@H](CCCCN)C(=O)N[C@@H](CCC(N)=O)C(=O)N[C@H](C(=O)N[C@@H](CC(C)C)C(=O)N[C@@H](C)C(=O)N[C@@H](CCC(N)=O)C(=O)N[C@H](C(N)=O)C(C)C)[C@@H](C)CC)[C@@H](C)CC)[C@@H](C)CC)C(C)C)C(C)C) [peptide of SEQ ID NO: 192] | 68 | 56.6 | 0.83 | 0.83 |

Now from value to binder:

| CRF1/CRF2 ratio (of EC50) [1] | CRF1 EC50 (cAMP, HTRF) [1] [nM] | EC50 [nM], 0% HSA (cAMP, HTRF) [2] [nM] | CRF2 EC50 (cAMP, HTRF) [3] [nM] | Binder |
| --- | --- | --- | --- | --- |
| 3 | 21.7 | 8.62 | 8.62 | IVLSLD[dV]PIKLK([γGlu-Palmitoyl])QILLKQERQKK[Aib]RQKAEKNKQILAQV-NH2 (N-terminus assumed; SMILES CCCCCCCCCCCCCCCC(=O)N[C@@H](CCC(=O)NCCCC[C@H](NC(=O)[C@H](CC(C)C)NC(=O)[C@H](CCCCN)NC(=O)[C@@H](NC(=O)[C@@H]1CCCN1C(=O)[C@H](NC(=O)[C@H](CC(=O)O)NC(=O)[C@H](CC(C)C)NC(=O)[C@H](CO)NC(=O)[C@H](CC(C)C)NC(=O)[C@@H](NC(=O)[C@@H](N)[C@@H](C)CC)C(C)C)C(C)C)[C@@H](C)CC)C(=O)N[C@@H](CCC(N)=O)C(=O)N[C@H](C(=O)N[C@@H](CC(C)C)C(=O)N[C@@H](CC(C)C)C(=O)N[C@@H](CCCCN)C(=O)N[C@@H](CCC(N)=O)C(=O)N[C@@H](CCC(=O)O)C(=O)N[C@@H](CCCNC(=N)N)C(=O)N[C@@H](CCC(N)=O)C(=O)N[C@@H](CCCCN)C(=O)N[C@@H](CCCCN)C(=O)NC(C)(C)C(=O)N[C@@H](CCCNC(=N)N)C(=O)N[C@@H](CCC(N)=O)C(=O)N[C@@H](CCCCN)C(=O)N[C@@H](C)C(=O)N[C@@H](CCC(=O)O)C(=O)N[C@@H](CCCCN)C(=O)N[C@@H](CC(N)=O)C(=O)N[C@@H](CCCCN)C(=O)N[C@@H](CCC(N)=O)C(=O)N[C@H](C(=O)N[C@@H](CC(C)C)C(=O)N[C@@H](C)C(=O)N[C@@H](CCC(N)=O)C(=O)N[C@H](C(N)=O)C(C)C)[C@@H](C)CC)[C@@H](C)CC)C(=O)O) [peptide of SEQ ID NO: 209] |
| 6 | 4.18 | 0.68 | 0.68 | IVLSLD[dV]PIGLK([γGlu-Palmitoyl])QILLKQERQKK[Aib]REQAETNKRILERV-NH2 (N-terminus assumed; SMILES CCCCCCCCCCCCCCCC(=O)N[C@@H](CCC(=O)NCCCC[C@H](NC(=O)[C@H](CC(C)C)NC(=O)CNC(=O)[C@@H](NC(=O)[C@@H]1CCCN1C(=O)[C@H](NC(=O)[C@H](CC(=O)O)NC(=O)[C@H](CC(C)C)NC(=O)[C@H](CO)NC(=O)[C@H](CC(C)C)NC(=O)[C@@H](NC(=O)[C@@H](N)[C@@H](C)CC)C(C)C)C(C)C)[C@@H](C)CC)C(=O)N[C@@H](CCC(N)=O)C(=O)N[C@H](C(=O)N[C@@H](CC(C)C)C(=O)N[C@@H](CC(C)C)C(=O)N[C@@H](CCCCN)C(=O)N[C@@H](CCC(N)=O)C(=O)N[C@@H](CCC(=O)O)C(=O)N[C@@H](CCCNC(=N)N)C(=O)N[C@@H](CCC(N)=O)C(=O)N[C@@H](CCCCN)C(=O)N[C@@H](CCCCN)C(=O)NC(C)(C)C(=O)N[C@@H](CCCNC(=N)N)C(=O)N[C@@H](CCC(=O)O)C(=O)N[C@@H](CCC(N)=O)C(=O)N[C@@H](C)C(=O)N[C@@H](CCC(=O)O)C(=O)N[C@H](C(=O)N[C@@H](CC(N)=O)C(=O)N[C@@H](CCCCN)C(=O)N[C@@H](CCCNC(=N)N)C(=O)N[C@H](C(=O)N[C@@H](CC(C)C)C(=O)N[C@@H](CCC(=O)O)C(=O)N[C@@H](CCCNC(=N)N)C(=O)N[C@H](C(N)=O)C(C)C)[C@@H](C)CC)[C@@H](C)O)[C@@H](C)CC)C(=O)O) [peptide of SEQ ID NO: 207] |
| 2 | 1.43 | 0.9 | 0.9 | IVLSLD[dV]PIKLK([γGlu-Palmitoyl])QILLKQERQK[Aib]QRQQAEKNKQILAQV-NH2 (N-terminus assumed; SMILES CCCCCCCCCCCCCCCC(=O)N[C@@H](CCC(=O)NCCCC[C@H](NC(=O)[C@H](CC(C)C)NC(=O)[C@H](CCCCN)NC(=O)[C@@H](NC(=O)[C@@H]1CCCN1C(=O)[C@H](NC(=O)[C@H](CC(=O)O)NC(=O)[C@H](CC(C)C)NC(=O)[C@H](CO)NC(=O)[C@H](CC(C)C)NC(=O)[C@@H](NC(=O)[C@@H](N)[C@@H](C)CC)C(C)C)C(C)C)[C@@H](C)CC)C(=O)N[C@@H](CCC(N)=O)C(=O)N[C@H](C(=O)N[C@@H](CC(C)C)C(=O)N[C@@H](CC(C)C)C(=O)N[C@@H](CCCCN)C(=O)N[C@@H](CCC(N)=O)C(=O)N[C@@H](CCC(=O)O)C(=O)N[C@@H](CCCNC(=N)N)C(=O)N[C@@H](CCC(N)=O)C(=O)N[C@@H](CCCCN)C(=O)NC(C)(C)C(=O)N[C@@H](CCC(N)=O)C(=O)N[C@@H](CCCNC(=N)N)C(=O)N[C@@H](CCC(N)=O)C(=O)N[C@@H](CCC(N)=O)C(=O)N[C@@H](C)C(=O)N[C@@H](CCC(=O)O)C(=O)N[C@@H](CCCCN)C(=O)N[C@@H](CC(N)=O)C(=O)N[C@@H](CCCCN)C(=O)N[C@@H](CCC(N)=O)C(=O)N[C@H](C(=O)N[C@@H](CC(C)C)C(=O)N[C@@H](C)C(=O)N[C@@H](CCC(N)=O)C(=O)N[C@H](C(N)=O)C(C)C)[C@@H](C)CC)[C@@H](C)CC)C(=O)O) [peptide of SEQ ID NO: 208] |
